In publication PMC2637981, “High-Level Production, Solubilization and Purification of Synthetic Human GPCR Chemokine Receptors CCR5, CCR3, CXCR4 and CX3CR1” (PLoS ONE, 2009):

Biological target: the molecule itself
Experiment: SEC; Ni2+ column eluate concentrated and run on Superdex 200 10/300 GL in Buffer C (1x PBS, 0.02% FC14); fractions tested by SDS-PAGE and Western blot; monomer, dimer and higher oligomer resolved

Row | Protein | binding result
1 | Trx-hCCR3 (human chemokine receptor CCR3 with N-terminal HP-thioredoxin, expressed from pBAD-hCCR3) (receptor, UniProt P51677 1-355, looked up, synthetic full-length gene of 1,065 bp; not shown: HP-thioredoxin (E. coli thioredoxin with E32H and Q64H), N-terminal, kept; His6, C-terminal, kept) MTTSLDTVETFGTTSYYDDVGLLCEKADTRALMAQFVPPLYSLVFTVGLLGNVVVVMILIKYRRLRIMTNIYLLNLAISDLLFLVTLPFWIHYVRGHNWVFGHGMCKLLSGFYHTGLYSEIFFIILLTIDRYLAIVHAVFALRARTVTFGVITSIVTWGLAVLAALPEFIFYETEELFEETLCSALYPEDTVYSWRHFHTLRMTIFCLVLPLLVMAICYTGIIKTLLRCPSKKKYKAIRLIFVIMAVFFIFWTPYNVAILLSSYQSILFGNDCERSKHLDLVMLVTEVIAYSHCCMNPVIYAFVGERFRKYLRHFFHRHLLMHLGRYIPFLPSEKLERTSSVSPSTAEPELSIVF | binds
2 | Trx-hCX3CR1 (human chemokine receptor CX3CR1 with N-terminal HP-thioredoxin, expressed from pBAD-hCX3CR1) (receptor, UniProt P49238 1-355, looked up, synthetic full-length gene of 1,065 bp; not shown: HP-thioredoxin (E. coli thioredoxin with E32H and Q64H), N-terminal, kept; His6, C-terminal, kept) MDQFPESVTENFEYDDLAEACYIGDIVVFGTVFLSIFYSVIFAIGLVGNLLVVFALTNSKKPKSVTDIYLLNLALSDLLFVATLPFWTHYLINEKGLHNAMCKFTTAFFFIGFFGSIFFITVISIDRYLAIVLAANSMNNRTVQHGVTISLGVWAAAILVAAPQFMFTKQKENECLGDYPEVLQEIWPVLRNVETNFLGFLLPLLIMSYCYFRIIQTLFSCKNHKKAKAIKLILLVVIVFFLFWTPYNVMIFLETLKLYDFFPSCDMRKDLRLALSVTETVAFSHCCLNPLIYAFAGEKFRRYLYHLYGKCLAVLCGRSVHVDFSSSESQRSRHGSVLSSNFTYHTSDGDALLLL | binds
